Assay results reported in article PMC9463278, “Development and Validation of Arc Nanobodies: New Tools for Probing Arc Dynamics and Function” (Neurochemical Research, 2022).

Key:
[1] = target: Arc NL (Rattus norvegicus) (UniProt Q63053); assay: ITC; conditions: cited from earlier work
[2] = target: the molecule itself; assay: native gel or EMSA; different amounts of purified Arc^s113−119A in native sample buffer, native PAGE on 4-15% Tris-Glycine gels; bands detected by immunoblotting with ALFA-ArcNbs and anti-ALFA HRP-coupled sdAb

Q: With stargazin (from UniProt Q71RJ2) as the molecule, how does the Kd [1] read?
A: The Kd was 34.9 nM.

B1: mutant rat Arc (Arc^s113−119A) (natural protein, UniProt Q63053 1-396, looked up)
chain: MELDHMTTGGLHAYPAPRGGPAAKPNVILQIGKCRAEMLEHVRRTHRHLLTEVSKQVERELKGLHRSVGKLENNLDGYVPTGDSQRWKKSIKACLCRCQETIANLERWVKREAAAAAAAFYRLERWADRLESMGGKYPVGSEPARHTVSVGVGGPEPYCQEADGYDYTVSPYAITPPPAAGELPEQESVGAQQYQSWVPGEDGQPSPGVDTQIFEDPREFLSHLEEYLRQVGGSEEYWLSQIQNHMNGPAKKWWEFKQGSVKNWVEFKKEFLQYSEGTLSREAIQRELDLPQKQGEPLDQFLWRKRDLYQTLYVDAEEEEIIQYVVGTLQPKFKRFLRHPLPKTLEQLIQRGMEVQDGLEQAAEPSVTPLPTEDETEALTPALTSESVASDRTQPE
notes: Activity-regulated cytoskeleton-associated protein (Arc, Arg3.1), rat; residues of the oligomerization motif 113-MHVWREV-119 substituted to alanine; also called purified mutant Arc^s113−119A protein; activity-regulated cytoskeleton-associated protein; source: purified recombinant
Q: Does B1 bind [2]?
A: Result: binds
